Data taken from the supplement of paper PMC9112550, “Optimization of the antimicrobial peptide Bac7 by deep mutational scanning” (BMC Biology, 2022).

Tested on: Escherichia coli TOP10
Test: shrunken log2 fold change of peptide-encoding DNA abundance (4.5 h post-induction vs induction); higher = less antimicrobial activity (less host growth inhibition)
Details: time post-induction: 4.5 h; library: site-saturation at positions 5, 18, 19, 20
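Further: peptides expressed intracellularly from a pBAD plasmid library in pooled LB shake-flask culture, induced with 0.3% L-arabinose, DNA abundance read by NGS, three biological replicates, DESeq2 with apeglm shrinkage.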

RRIRNRPPRLPRPRPRPLEVPRP
shrunken log2 fold change: -0.118

RRIRNRPPRLPRPRPRPLFKPRP
shrunken log2 fold change: -1.08

RRIRNRPPRLPRPRPRPLFLPRP
shrunken log2 fold change: -0.547

RRIRNRPPRLPRPRPRPLFQPRP
shrunken log2 fold change: -0.421

RRIRNRPPRLPRPRPRPLGFPRP
shrunken log2 fold change: 0.0608

RRIRNRPPRLPRPRPRPLGYPRP
shrunken log2 fold change: -0.165

RRIRNRPPRLPRPRPRPLHDPRP
shrunken log2 fold change: -0.178

RRIRNRPPRLPRPRPRPLHKPRP
shrunken log2 fold change: -0.101

RRIRNRPPRLPRPRPRPLHMPRP
shrunken log2 fold change: -0.372

RRIRNRPPRLPRPRPRPLIMPRP
shrunken log2 fold change: -0.48

RRIRNRPPRLPRPRPRPLIQPRP
shrunken log2 fold change: -0.327

RRIRNRPPRLPRPRPRPLIYPRP
shrunken log2 fold change: -0.114

RRIRNRPPRLPRPRPRPLKGPRP
shrunken log2 fold change: -0.0139

RRIRNRPPRLPRPRPRPLMSPRP
shrunken log2 fold change: -0.316

RRIRNRPPRLPRPRPRPLNAPRP
shrunken log2 fold change: -0.662

RRIRNRPPRLPRPRPRPLNCPRP
shrunken log2 fold change: -0.415

RRIRNRPPRLPRPRPRPLNMPRP
shrunken log2 fold change: -0.636

RRIRNRPPRLPRPRPRPLPSPRP
shrunken log2 fold change: 1.86

RRIRNRPPRLPRPRPRPLPTPRP
shrunken log2 fold change: -0.0778

RRIRNRPPRLPRPRPRPLPYPRP
shrunken log2 fold change: -0.542

RRIRNRPPRLPRPRPRPLQMPRP
shrunken log2 fold change: -0.0999

RRIRNRPPRLPRPRPRPLQSPRP
shrunken log2 fold change: -0.0505

RRIRNRPPRLPRPRPRPLSVPRP
shrunken log2 fold change: -0.21

RRIRNRPPRLPRPRPRPLTGPRP
shrunken log2 fold change: 0.0323

RRIRNRPPRLPRPRPRPLTHPRP
shrunken log2 fold change: -0.566

RRIRNRPPRLPRPRPRPLVLPRP
shrunken log2 fold change: -0.171

RRIRNRPPRLPRPRPRPLWHPRP
shrunken log2 fold change: -0.185

RRIRNRPPRLPRPRPRPLWNPRP
shrunken log2 fold change: -0.511

RRIRNRPPRLPRPRPRPLYEPRP
shrunken log2 fold change: -0.675

RRIRNRPPRLPRPRPRPMANPRP
shrunken log2 fold change: -9.3e-05

RRIRNRPPRLPRPRPRPMAQPRP
shrunken log2 fold change: 0.0103

RRIRNRPPRLPRPRPRPMDCPRP
shrunken log2 fold change: 0.0919

RRIRNRPPRLPRPRPRPMEFPRP
shrunken log2 fold change: -0.136

RRIRNRPPRLPRPRPRPMEPPRP
shrunken log2 fold change: -0.0573

RRIRNRPPRLPRPRPRPMFDPRP
shrunken log2 fold change: -0.253

RRIRNRPPRLPRPRPRPMFFPRP
shrunken log2 fold change: -0.189

RRIRNRPPRLPRPRPRPMFLPRP
shrunken log2 fold change: -0.241

RRIRNRPPRLPRPRPRPMGRPRP
shrunken log2 fold change: -0.117

RRIRNRPPRLPRPRPRPMHIPRP
shrunken log2 fold change: -0.168

RRIRNRPPRLPRPRPRPMHSPRP
shrunken log2 fold change: -0.0169

RRIRNRPPRLPRPRPRPMKDPRP
shrunken log2 fold change: 0.145

RRIRNRPPRLPRPRPRPMKMPRP
shrunken log2 fold change: 0.064

RRIRNRPPRLPRPRPRPMMYPRP
shrunken log2 fold change: 0.025

RRIRNRPPRLPRPRPRPMNCPRP
shrunken log2 fold change: -0.57

RRIRNRPPRLPRPRPRPMQDPRP
shrunken log2 fold change: -0.0611

RRIRNRPPRLPRPRPRPMSVPRP
shrunken log2 fold change: 0.0774

RRIRNRPPRLPRPRPRPMVHPRP
shrunken log2 fold change: -0.00783

RRIRNRPPRLPRPRPRPMVYPRP
shrunken log2 fold change: 0.0157

RRIRNRPPRLPRPRPRPMYEPRP
shrunken log2 fold change: 0.0112

RRIRNRPPRLPRPRPRPMYMPRP
shrunken log2 fold change: -0.05

RRIRNRPPRLPRPRPRPMYRPRP
shrunken log2 fold change: -0.473

RRIRNRPPRLPRPRPRPNCLPRP
shrunken log2 fold change: -0.116

RRIRNRPPRLPRPRPRPNCNPRP
shrunken log2 fold change: -0.549

RRIRNRPPRLPRPRPRPNFGPRP
shrunken log2 fold change: -0.0224

RRIRNRPPRLPRPRPRPNFKPRP
shrunken log2 fold change: -0.0826

RRIRNRPPRLPRPRPRPNFVPRP
shrunken log2 fold change: -0.317

RRIRNRPPRLPRPRPRPNGYPRP
shrunken log2 fold change: -0.0975

RRIRNRPPRLPRPRPRPNHHPRP
shrunken log2 fold change: -0.701

RRIRNRPPRLPRPRPRPNIRPRP
shrunken log2 fold change: -0.103

RRIRNRPPRLPRPRPRPNKHPRP
shrunken log2 fold change: -0.528

RRIRNRPPRLPRPRPRPNKQPRP
shrunken log2 fold change: -0.0266

RRIRNRPPRLPRPRPRPNLYPRP
shrunken log2 fold change: -0.515

RRIRNRPPRLPRPRPRPNMKPRP
shrunken log2 fold change: -0.48

RRIRNRPPRLPRPRPRPNMWPRP
shrunken log2 fold change: -0.274

RRIRNRPPRLPRPRPRPNNIPRP
shrunken log2 fold change: -0.551

RRIRNRPPRLPRPRPRPNNMPRP
shrunken log2 fold change: -0.278

RRIRNRPPRLPRPRPRPNPKPRP
shrunken log2 fold change: 0.284

RRIRNRPPRLPRPRPRPNPQPRP
shrunken log2 fold change: 0.166

RRIRNRPPRLPRPRPRPNQEPRP
shrunken log2 fold change: -0.0316

RRIRNRPPRLPRPRPRPNRNPRP
shrunken log2 fold change: -0.91

RRIRNRPPRLPRPRPRPNRRPRP
shrunken log2 fold change: -0.133

RRIRNRPPRLPRPRPRPNRYPRP
shrunken log2 fold change: -0.0433

RRIRNRPPRLPRPRPRPNSHPRP
shrunken log2 fold change: -0.858

RRIRNRPPRLPRPRPRPNTDPRP
shrunken log2 fold change: -0.249

RRIRNRPPRLPRPRPRPNTRPRP
shrunken log2 fold change: -0.115

RRIRNRPPRLPRPRPRPNTSPRP
shrunken log2 fold change: -0.0898

RRIRNRPPRLPRPRPRPNWEPRP
shrunken log2 fold change: 0.0299

RRIRNRPPRLPRPRPRPNWPPRP
shrunken log2 fold change: 0.142

RRIRNRPPRLPRPRPRPNWTPRP
shrunken log2 fold change: -0.0743

RRIRNRPPRLPRPRPRPNYMPRP
shrunken log2 fold change: -0.784

RRIRNRPPRLPRPRPRPNYRPRP
shrunken log2 fold change: -0.264

RRIRNRPPRLPRPRPRPNYYPRP
shrunken log2 fold change: -0.473

RRIRNRPPRLPRPRPRPPADPRP
shrunken log2 fold change: 0.595

RRIRNRPPRLPRPRPRPPAIPRP
shrunken log2 fold change: 0.276

RRIRNRPPRLPRPRPRPPCYPRP
shrunken log2 fold change: -0.41

RRIRNRPPRLPRPRPRPPDCPRP
shrunken log2 fold change: 0.036

RRIRNRPPRLPRPRPRPPDYPRP
shrunken log2 fold change: -0.077

RRIRNRPPRLPRPRPRPPEDPRP
shrunken log2 fold change: 0.174

RRIRNRPPRLPRPRPRPPETPRP
shrunken log2 fold change: 0.314

RRIRNRPPRLPRPRPRPPEWPRP
shrunken log2 fold change: -0.188

RRIRNRPPRLPRPRPRPPGGPRP
shrunken log2 fold change: 0.748

RRIRNRPPRLPRPRPRPPHMPRP
shrunken log2 fold change: -0.217

RRIRNRPPRLPRPRPRPPIFPRP
shrunken log2 fold change: 0.0391

RRIRNRPPRLPRPRPRPPIKPRP
shrunken log2 fold change: -0.279

RRIRNRPPRLPRPRPRPPKAPRP
shrunken log2 fold change: 0.00248

RRIRNRPPRLPRPRPRPPLSPRP
shrunken log2 fold change: 0.502

RRIRNRPPRLPRPRPRPPMLPRP
shrunken log2 fold change: -0.0624

RRIRNRPPRLPRPRPRPPMMPRP
shrunken log2 fold change: 0.0507

RRIRNRPPRLPRPRPRPPQMPRP
shrunken log2 fold change: 0.234

RRIRNRPPRLPRPRPRPPSFPRP
shrunken log2 fold change: -0.0746

RRIRNRPPRLPRPRPRPPSNPRP
shrunken log2 fold change: -0.135

RRIRNRPPRLPRPRPRPPVKPRP
shrunken log2 fold change: -0.123

RRIRNRPPRLPRPRPRPPWTPRP
shrunken log2 fold change: 0.272

RRIRNRPPRLPRPRPRPPYCPRP
shrunken log2 fold change: 0.0775

RRIRNRPPRLPRPRPRPPYLPRP
shrunken log2 fold change: -0.269

RRIRNRPPRLPRPRPRPQANPRP
shrunken log2 fold change: 0.202

RRIRNRPPRLPRPRPRPQAQPRP
shrunken log2 fold change: -0.0086

RRIRNRPPRLPRPRPRPQCCPRP
shrunken log2 fold change: -0.0308

RRIRNRPPRLPRPRPRPQCPPRP
shrunken log2 fold change: -0.33

RRIRNRPPRLPRPRPRPQFAPRP
shrunken log2 fold change: -0.0842

RRIRNRPPRLPRPRPRPQFSPRP
shrunken log2 fold change: -0.306

RRIRNRPPRLPRPRPRPQILPRP
shrunken log2 fold change: -0.265

RRIRNRPPRLPRPRPRPQIPPRP
shrunken log2 fold change: 0.0549

RRIRNRPPRLPRPRPRPQKGPRP
shrunken log2 fold change: 0.0289

RRIRNRPPRLPRPRPRPQKIPRP
shrunken log2 fold change: -0.22

RRIRNRPPRLPRPRPRPQKKPRP
shrunken log2 fold change: 0.0889

RRIRNRPPRLPRPRPRPQKVPRP
shrunken log2 fold change: 0.007

RRIRNRPPRLPRPRPRPQLAPRP
shrunken log2 fold change: -0.123

RRIRNRPPRLPRPRPRPQLFPRP
shrunken log2 fold change: 0.177

RRIRNRPPRLPRPRPRPQPTPRP
shrunken log2 fold change: 0.0158

RRIRNRPPRLPRPRPRPQSAPRP
shrunken log2 fold change: -0.073

RRIRNRPPRLPRPRPRPQSVPRP
shrunken log2 fold change: -0.0373

RRIRNRPPRLPRPRPRPQVSPRP
shrunken log2 fold change: -0.434

RRIRNRPPRLPRPRPRPQWFPRP
shrunken log2 fold change: -0.0391

RRIRNRPPRLPRPRPRPQYCPRP
shrunken log2 fold change: -0.186

RRIRNRPPRLPRPRPRPQYPPRP
shrunken log2 fold change: -0.571

RRIRNRPPRLPRPRPRPQYSPRP
shrunken log2 fold change: -0.232

RRIRNRPPRLPRPRPRPRCAPRP
shrunken log2 fold change: 0.708

RRIRNRPPRLPRPRPRPRCCPRP
shrunken log2 fold change: -0.247

RRIRNRPPRLPRPRPRPRDDPRP
shrunken log2 fold change: 0.145

RRIRNRPPRLPRPRPRPRDHPRP
shrunken log2 fold change: -0.219

RRIRNRPPRLPRPRPRPRDVPRP
shrunken log2 fold change: 0.0624

RRIRNRPPRLPRPRPRPRENPRP
shrunken log2 fold change: -0.0577

RRIRNRPPRLPRPRPRPRFYPRP
shrunken log2 fold change: -0.201

RRIRNRPPRLPRPRPRPRGEPRP
shrunken log2 fold change: -0.029

RRIRNRPPRLPRPRPRPRGLPRP
shrunken log2 fold change: 0.342

RRIRNRPPRLPRPRPRPRGQPRP
shrunken log2 fold change: 0.114

RRIRNRPPRLPRPRPRPRHFPRP
shrunken log2 fold change: -0.201

RRIRNRPPRLPRPRPRPRHYPRP
shrunken log2 fold change: -0.446

RRIRNRPPRLPRPRPRPRIYPRP
shrunken log2 fold change: -0.0955

RRIRNRPPRLPRPRPRPRLPPRP
shrunken log2 fold change: 0.245

RRIRNRPPRLPRPRPRPRLWPRP
shrunken log2 fold change: 0.0283

RRIRNRPPRLPRPRPRPRMCPRP
shrunken log2 fold change: 0.138

RRIRNRPPRLPRPRPRPRPQPRP
shrunken log2 fold change: 0.339

RRIRNRPPRLPRPRPRPRPVPRP
shrunken log2 fold change: 0.303

RRIRNRPPRLPRPRPRPRQLPRP
shrunken log2 fold change: 0.244

RRIRNRPPRLPRPRPRPRQVPRP
shrunken log2 fold change: -0.306

RRIRNRPPRLPRPRPRPRRPPRP
shrunken log2 fold change: 0.3

RRIRNRPPRLPRPRPRPRSEPRP
shrunken log2 fold change: 0.139

RRIRNRPPRLPRPRPRPRSRPRP
shrunken log2 fold change: 0.177
